Laboratory results: US20190177716A1

Experiments:
[1] = target: CD28 expressed on Jurkat.E6 cells (human) (UniProt P10747); assay: flow cytometry on Jurkat.E6 cells at 25 C, secondary goat anti-mouse IgG staining, one-site specific binding fit
[2] = target: CD3ε of the TCR-CD3 complex expressed on Jurkat cells (T-cell Surface Glycoprotein CD3 Epsilon) (human) (UniProt P07766); assay: as above

Substance	Kd [1] [nM]	Kd [2] [nM]
anti-CD28 monoclonal antibody (mouse anti-human, isotype IgG2a, Clone 9.3, BioXCell Catalog# BE0248)	1.6	
anti-CD3 monoclonal antibody clone OKT3 (mouse anti-human, isotype IgG2a, BioXCell Catalog# BE0001-2)		1.5
anti-CD3 monoclonal antibody clone UCHT1 (mouse anti-human, isotype IgG1, BioXCell Catalog# BE0231)		1.4
